Earlier results as cited in PMC4017372.
pKd: −log10 of the molar value.

Assays:
[1] = biological target: UreE (Helicobacter pylori) (UniProt B5Z672); experiment: ITC
[2] = biological target: HypB (Helicobacter pylori) (UniProt O25560)
Chain of UniProt O25560 (O25560 whole entry): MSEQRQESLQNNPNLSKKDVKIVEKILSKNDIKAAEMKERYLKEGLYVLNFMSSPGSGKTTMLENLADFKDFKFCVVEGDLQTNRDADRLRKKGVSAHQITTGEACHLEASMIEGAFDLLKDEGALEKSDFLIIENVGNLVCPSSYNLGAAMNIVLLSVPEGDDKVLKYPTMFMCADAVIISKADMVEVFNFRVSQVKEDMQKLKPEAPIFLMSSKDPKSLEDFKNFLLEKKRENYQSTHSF

Chain of UniProt B5Z672 (B5Z672 whole entry): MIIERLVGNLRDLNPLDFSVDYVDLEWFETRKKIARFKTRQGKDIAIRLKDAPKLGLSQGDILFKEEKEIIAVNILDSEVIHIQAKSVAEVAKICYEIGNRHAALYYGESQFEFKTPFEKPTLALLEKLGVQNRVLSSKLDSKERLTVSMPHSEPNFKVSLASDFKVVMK

## UreG (from UniProt B6JPH1)
[1]
  pKd: 5.40

## HypA (from UniProt P0A0U5)
[2]
  pKd: 4.28
